From patent US20230203170A1 (DRAGONBOAT BIOPHARMACEUTICAL SHANGHAI, published 2023) come the findings set out here.

In assay [1] the target is T1, full-length mouse CSF-1R (RefSeq ID NP_001032948) expressed on HEK293F cells (mouse, UniProt P09581 20-977).
T1 construct: whole, on cells
T1 sequence (looked up): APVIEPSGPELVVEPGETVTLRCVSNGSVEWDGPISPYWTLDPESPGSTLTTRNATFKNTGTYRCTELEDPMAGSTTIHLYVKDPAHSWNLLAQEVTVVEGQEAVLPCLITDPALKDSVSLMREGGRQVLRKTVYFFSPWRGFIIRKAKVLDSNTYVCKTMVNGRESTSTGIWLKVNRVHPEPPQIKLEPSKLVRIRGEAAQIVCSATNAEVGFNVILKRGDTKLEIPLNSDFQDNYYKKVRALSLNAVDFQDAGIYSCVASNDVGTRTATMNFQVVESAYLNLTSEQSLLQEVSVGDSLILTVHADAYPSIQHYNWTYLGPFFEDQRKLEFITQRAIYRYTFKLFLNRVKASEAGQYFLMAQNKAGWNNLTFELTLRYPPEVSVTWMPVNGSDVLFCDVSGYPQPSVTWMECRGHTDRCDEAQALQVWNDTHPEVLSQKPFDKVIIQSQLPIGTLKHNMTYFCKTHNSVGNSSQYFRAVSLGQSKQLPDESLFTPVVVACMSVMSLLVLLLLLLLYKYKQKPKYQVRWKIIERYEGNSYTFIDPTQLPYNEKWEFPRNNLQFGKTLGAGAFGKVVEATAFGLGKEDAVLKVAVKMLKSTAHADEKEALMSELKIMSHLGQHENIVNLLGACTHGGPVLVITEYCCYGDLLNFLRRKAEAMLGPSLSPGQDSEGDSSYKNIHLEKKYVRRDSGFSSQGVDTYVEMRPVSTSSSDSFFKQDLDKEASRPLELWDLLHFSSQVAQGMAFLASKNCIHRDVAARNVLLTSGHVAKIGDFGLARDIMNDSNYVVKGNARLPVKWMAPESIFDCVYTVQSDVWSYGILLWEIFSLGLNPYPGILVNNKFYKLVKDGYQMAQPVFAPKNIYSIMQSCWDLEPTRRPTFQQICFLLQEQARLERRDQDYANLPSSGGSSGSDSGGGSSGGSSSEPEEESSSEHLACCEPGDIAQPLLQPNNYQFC
In words: flow cytometry on HEK293F cells transiently expressing full-length mouse CSF-1R (IRES-EGFP vector), Alexa Fluor 647 anti-human Fc detection [Conti.]. How it is done:
(§1) The specificities of the antibodies were also assessed against human, monkey and mouse CSF-1R that are transiently expressed on the surface of HEK293F cells (FIG. 1). Briefly, HEK293F cells were transfected with a plasmid expressing full-length human, monkey (RefSeq ID XP_015307616) or mouse (RefSeq ID NP_001032948) CSF-1R from a bicistronic IRES vector. EGFP was used to identify the transfected cells. After 40 hrs, the transfected cells were harvested and then washed once with 1% PBSA buffer (1% (w/v) BSA in 1×PBS). Cells were then incubated with various IgGs (each at 100 nM) for 1 hr at room temperature, washed once with pre-chilled 1% PBSA buffer, and incubated with Alexa Fluor® 647 conjugated mouse anti-human Fc antibodies for 30 min on ice. The cells were washed once prior to analysis by flow cytometry (Beckman® CytoFlex).
A general note: A flow cytometer gives signals particle by particle.

Assay [2] has as its target T2, human CSF1R-His (Acrobiosystem, CSR-H5228) (human, UniProt P07333 20-512, limits assumed).
T2 construct: Bought protein; The catalogue number is printed only for the SPR assay; also called human CSF-1R protein; not shown: His tag
In words: SPR Biacore T200; IgG captured by anti-human Fc, CSF1R-His as analyte, 1:1 fit. The text has this: The specific binding affinity and kinetics of antibodies against human CSF-1R protein were examined by surface plasmon resonance (SPR) analysis using a Biacore™ T200 instrument (GE, USA) according to the manufacturer’s guidelines. Anti-Human IgG (Fc) antibody (Sigma, I2136) was immobilized on CM5 chips according to the instructions of Amine Coupling kit (GE Biacore #BR-1000-50). The immobilized Anti-Human IgG (Fc) antibody was used to capture the antibodies. […] The running buffer used was 0.01 M HEPES, 0.15 M NaCl, 3 mM EDTA, 0.05% (v/v) surfactant P20, pH 7.4. Corresponding controls were conducted in each case using a blank flow cell with no protein captured for “background” subtraction. The association and dissociation curves were fitted to a 1:1 Langmuir binding model using Biacore T200 Evaluation Software (GE, USA) according to the manufacturer’s guidelines.

In assay [3] the target is T1, full-length mouse CSF-1R (RefSeq ID …). Put plainly: flow cytometry on HEK293F cells transiently expressing full-length mouse CSF-1R (IRES-EGFP vector), IgG at 100 nM, Alexa Fluor 647 anti-human Fc detection. How it is done:
as §1

For assay [4], the target named is T3, full-length monkey CSF-1R (RefSeq ID XP_015307616) expressed on HEK293F cells (monkey, UniProt A0A2K5WG90 20-976). In words: flow cytometry on HEK293F cells transiently expressing full-length monkey CSF-1R (IRES-EGFP vector), IgG at 100 nM, Alexa Fluor 647 anti-human Fc detection. The procedure:
as §1

Assay [5] concerns the target T4, full-length human CSF-1R expressed on cells (human, UniProt P07333 20-972).
T4 construct: whole, on cells
Put plainly: flow cytometry on HEK293F cells transiently expressing full-length human CSF-1R (IRES-EGFP vector), IgG at 100 nM, Alexa Fluor 647 anti-human Fc detection. How it is done: as §1

Assay [6] concerns the target T1, full-length mouse CSF-1R (RefSeq ID …). In words: flow cytometry on HEK293F cells transiently expressing full-length mouse CSF-1R (IRES-EGFP vector), Alexa Fluor 647 anti-human Fc detection. How it is done: as §1
Assay [7] deals with T3, full-length monkey CSF-1R (RefSeq ID …). Put plainly: flow cytometry on HEK293F cells transiently expressing full-length monkey CSF-1R (IRES-EGFP vector), IgG at 100 nM, Alexa Fluor 647 anti-human Fc detection [Conti.]. The procedure: as §1

T3 sequence (A0A2K5WG90 entry or part of it limits assumed, form in doubt): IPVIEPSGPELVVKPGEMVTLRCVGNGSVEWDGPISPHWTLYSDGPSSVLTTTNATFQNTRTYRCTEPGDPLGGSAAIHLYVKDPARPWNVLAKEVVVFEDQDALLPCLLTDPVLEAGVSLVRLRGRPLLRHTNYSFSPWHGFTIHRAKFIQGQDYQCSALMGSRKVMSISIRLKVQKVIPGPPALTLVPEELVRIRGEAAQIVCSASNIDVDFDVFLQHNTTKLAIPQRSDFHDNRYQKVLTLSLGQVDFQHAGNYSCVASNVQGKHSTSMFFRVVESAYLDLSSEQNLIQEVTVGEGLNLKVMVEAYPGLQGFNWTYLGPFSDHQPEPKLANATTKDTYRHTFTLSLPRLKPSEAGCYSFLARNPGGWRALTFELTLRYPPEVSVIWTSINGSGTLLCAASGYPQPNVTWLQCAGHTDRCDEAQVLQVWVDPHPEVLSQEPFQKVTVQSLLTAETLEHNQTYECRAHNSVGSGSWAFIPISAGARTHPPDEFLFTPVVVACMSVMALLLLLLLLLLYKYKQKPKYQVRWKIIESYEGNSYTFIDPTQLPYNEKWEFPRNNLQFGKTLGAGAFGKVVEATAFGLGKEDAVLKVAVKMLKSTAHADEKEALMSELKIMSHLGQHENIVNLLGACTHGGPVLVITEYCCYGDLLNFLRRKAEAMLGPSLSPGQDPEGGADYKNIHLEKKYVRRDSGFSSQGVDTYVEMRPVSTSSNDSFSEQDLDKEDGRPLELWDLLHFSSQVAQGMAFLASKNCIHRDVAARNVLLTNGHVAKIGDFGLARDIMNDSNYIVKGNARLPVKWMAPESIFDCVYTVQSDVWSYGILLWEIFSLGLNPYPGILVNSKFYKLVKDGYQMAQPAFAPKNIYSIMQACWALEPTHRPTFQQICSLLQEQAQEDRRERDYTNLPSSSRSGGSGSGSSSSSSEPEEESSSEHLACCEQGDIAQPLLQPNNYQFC

B1: TAC2188 (antibody, human IgG4, V domains shown)
VH: QVQLVQSGAEVKKPGASVKVSCKASGYTFTSYDISWVRQAPGQGLEWMGVIWTDGGTNYAQKLQGRVTMTTDTSTSTAYMELRSLRSDDTAVYYCARDQRLYFDVWGQGTTVTVSS
VL: DIQMTQSPSSLSASVGDRVTITCRASEDVNTYVSWYQQKPGKAPKLLIYAASNRYTGVPSRFSGSGSGTDFTLTISSLQPEDFATYYCQQSFSYPTFGQGTKLEIK
Regarding B1, the binding result in assay [1] is reported as “no binding (tested: 100 nM)”.

B2: TAC2205 (antibody, human IgG4, V domains shown)
VH: QVQLVQSGAEVKKPGSSVKVSCKASGYTFTDNYMIWVRQAPGQGLEWMGDINPYNGGTTFNQKFKGRVTITADKSTSTAYMELSSLRSEDTAVYYCARESPYFSNLYVMDYWGQGTLVTVSS
VL: EIVLTQSPATLSLSPGERATLSCKASQSVDYDGDNYMNWYQQKPGQAPRLLIYAASNLESGIPARFSGSGSGTDFTLTISSLEPEDFAVYYCHLSNEDLSTFGGGTKVEIK
In general, Kd refers to the free concentration of one partner at which half of the binding sites on the other are occupied at equilibrium, for simple one-to-one binding. B2 gave a Kd in assay [2] of 0.67 nM. The binding result in assay [1] is on record as “no binding (tested: 100 nM)”.

B3: TY21371 (antibody, V domains shown)
VH: EVQLVESGGGLVQPGGSLRLSCAASGFTFSGYAIHWVRQAPGKGLEWVSVISGYGSSTYYADSVKGRFTISRDNSKNTLYLQLNSLRAEDTAVYYCARDPGVGGFDVWGQGTLVTVSS
VL: DIQLTQSPSSLSASVGDRVTITCRASQSVRRRFLAWYQQKPGKAPKLLIYDASSLESGVPSRFSGSGSGTDFTLTISSLQPEDFATYYCQQYYPIPRTFGQGTKVEIK
notes: Human IgG4 isotype with S241P mutation (Uniprot P01861); Its IgG1 format is called TY22179 (used only in PK/PD)
For B3, the “percent of cells in the upper right quadrant (APC Ab binding positive, FITC Ag display positive)” value turned out to be 3.71% in assay [3], 29.5% in assay [4] and 40.2% in assay [5]. The binding result in assay [6] is “no binding (tested: 100 nM)”. The molecule also yielded a Kd in assay [2] of 0.6 nM.

B4: TY21433 (antibody, human IgG4, V domains shown)
VH: EVQLVESGGGLVQPGGSLRLSCAASGFTFSNYAIHWVRQAPGKGLEWVSVISGYGSTTYYADSVKGRFTISRDNSKNTLYLQLNSLRAEDTAVYYCARSTVATPFAYWGQGTLVTVSS
VL: DIQLTQSPSSLSASVGDRVTITCKASQDVRTAVAWYQQKPGKAPKLLIYAASTLQSGVPSRFSGSGSGTDFTLTISSLQPEDFATYYCQQSYPWPWTFGQGTKVEIK
notes: Human IgG4 isotype with S241P mutation
In assay [2], B4 came in with a Kd of 3.51 nM. For the same molecule, the binding result in assay [1] is on record as “no binding (tested: 100 nM)”.

B5: TY21372 (antibody, human IgG4, V domains shown)
VH: EVQLVESGGGLVQPGGSLRLSCAASGYTFSDYAIHWVRQAPGKGLEWVSVISGYGSTTYYADSVKGRFTISRDNSKNTLYLQLNSLRAEDTAVYYCARASSYGGFDYWGQGTLVTVSS
VL: DIQLTQSPSSLSASVGDRVTITCRASQDVSTAVAWYQQKPGKAPKLLIYDASNRATGIPSRFSGSGSGTDFTLTISSLQPEDFATYYCQQYYPWPWTFGQGTKVEIK
notes: as for B4
On to B5, for which the “percent of cells in the upper right quadrant (APC Ab binding positive, FITC Ag display positive)” value in assay [4] turned out to be 33.7%; in assay [5], 37.4%. The binding result in assay [6] was “no binding (tested: 100 nM)”. Besides, the Kd in assay [2] was determined as 1.61 nM.

B6: TY21375 (antibody, human IgG4, V domains shown)
VH: EVQLVESGGGLVQPGGSLRLSCAASGFTFSDYAIHWVRQAPGKGLEWVSVISGYGGSTYYADSVKGRFTISRDNSKNTLYLQLNSLRAEDTAVYYCARSGGGGYYFDYWGQGTLVTVSS
VL: DIQLTQSPSSLSASVGDRVTITCRASQGIRSYLAWYQQKPGKAPKLLIYAASSLQSGVPSRFSGSGSGTDFTLTISSLQPEDFATYYCQQSYHWPLTFGQGTKVEIK
notes: as for B4
For the molecule B6, the “percent of cells in the upper right quadrant (APC Ab binding positive, FITC Ag display positive)” value in assay [3] was 0.081%; in assay [4] it was 32.6%; in assay [5], 43.8%. Besides, in assay [6], the binding result is reported as “no binding (tested: 100 nM)”. Also, the Kd in assay [2] came out at 35.5 nM.

B7: TY21373 (antibody, human IgG4, V domains shown)
VH: EVQLVESGGGLVQPGGSLRLSCAASGYSISSGYYWGWIRQAPGKGLEWVSSISGYGSSTYYADSVKGRFTISRDNSKNTLYLQLNSLRAEDTAVYYCARGAYGYFDYWGQGTLVTVSS
VL: DIQLTQSPSSLSASVGDRVTITCPASSSVSYIHWYQQKPGKAPKLLIYDASNLETGVPSRFSGSGSGTDFTLTISSLQPEDFATYYCQQYYPWPWTFGQGTKVEIK
notes: as for B4
With B7, the “percent of cells in the upper right quadrant (APC Ab binding positive, FITC Ag display positive)” value came to 0.77% in assay [3] and 37.4% in assay [5]. The binding result in assay [6] is given as “no binding (tested: 100 nM)”. The molecule also displayed a Kd in assay [2] of 23.6 nM.

B8: TY21429 (antibody, human IgG4, V domains shown)
VH: EVQLVESGGGLVQPGGSLRLSCAASGYTFSNYAIHWVRQAPGKGLEWVSAISGTGSSTYYADSVKGRFTISRDNSKNTLYLQLNSLRAEDTAVYYCARHSHSRYAFDYWGQGTLVTVSS
VL: DIQLTQSPSSLSASVGDRVTITCRASHVRTAVAWYQQKPGKAPKLLIYDASNLETGVPSRFSGSGSGTDFTLTISSLQPEDFATYYCQQYYPWPWTFGQGTKVEIK
notes: as for B4
On to B8, for which the Kd in assay [2] stood at 3.18 nM. For the same molecule, the binding result in assay [1] is recorded as “no binding (tested: 100 nM)”. The “percent of cells in the upper right quadrant (APC Ab binding positive, FITC Ag display positive)” value in assay [7] was 34.2%.
